The target in one assay is T1, Kapβ2(W373A) (UniProt Q92973-2 1-890, W373A).
T1 sequence (looked up): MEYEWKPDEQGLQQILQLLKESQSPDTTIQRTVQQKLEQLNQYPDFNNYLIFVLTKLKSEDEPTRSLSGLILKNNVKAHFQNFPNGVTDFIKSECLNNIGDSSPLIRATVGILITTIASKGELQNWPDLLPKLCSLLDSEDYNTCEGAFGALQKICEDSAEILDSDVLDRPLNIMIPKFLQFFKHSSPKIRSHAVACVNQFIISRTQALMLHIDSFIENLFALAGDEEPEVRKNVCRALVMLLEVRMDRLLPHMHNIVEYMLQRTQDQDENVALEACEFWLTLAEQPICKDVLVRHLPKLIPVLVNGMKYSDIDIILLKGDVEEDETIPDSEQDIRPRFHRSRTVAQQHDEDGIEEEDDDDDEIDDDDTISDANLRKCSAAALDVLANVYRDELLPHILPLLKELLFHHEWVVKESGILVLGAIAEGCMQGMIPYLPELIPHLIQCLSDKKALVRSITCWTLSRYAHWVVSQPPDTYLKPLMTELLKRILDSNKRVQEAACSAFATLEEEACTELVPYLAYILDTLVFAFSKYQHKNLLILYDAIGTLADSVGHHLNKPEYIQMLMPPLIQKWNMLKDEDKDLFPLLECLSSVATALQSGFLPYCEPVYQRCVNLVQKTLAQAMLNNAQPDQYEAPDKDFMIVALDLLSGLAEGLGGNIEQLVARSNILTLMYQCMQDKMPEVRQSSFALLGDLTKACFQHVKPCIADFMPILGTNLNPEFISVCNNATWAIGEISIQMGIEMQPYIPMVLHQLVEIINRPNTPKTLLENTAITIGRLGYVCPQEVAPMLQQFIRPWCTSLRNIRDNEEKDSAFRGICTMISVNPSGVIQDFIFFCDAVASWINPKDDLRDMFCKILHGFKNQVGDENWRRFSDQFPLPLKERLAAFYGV
Briefly: ITC. Background: Isothermal titration calorimetry measures the heat released or taken up as one component is titrated into another.

The target of assay [1] is Karyopherin-β2 (full length, GST tag removed) (UniProt Q92973). Briefly: ITC.
Assay [2] deals with T2, Karyopherin-β2 (full length, GST tag removed) (UniProt Q92973-2 1-890).
T2 sequence (looked up): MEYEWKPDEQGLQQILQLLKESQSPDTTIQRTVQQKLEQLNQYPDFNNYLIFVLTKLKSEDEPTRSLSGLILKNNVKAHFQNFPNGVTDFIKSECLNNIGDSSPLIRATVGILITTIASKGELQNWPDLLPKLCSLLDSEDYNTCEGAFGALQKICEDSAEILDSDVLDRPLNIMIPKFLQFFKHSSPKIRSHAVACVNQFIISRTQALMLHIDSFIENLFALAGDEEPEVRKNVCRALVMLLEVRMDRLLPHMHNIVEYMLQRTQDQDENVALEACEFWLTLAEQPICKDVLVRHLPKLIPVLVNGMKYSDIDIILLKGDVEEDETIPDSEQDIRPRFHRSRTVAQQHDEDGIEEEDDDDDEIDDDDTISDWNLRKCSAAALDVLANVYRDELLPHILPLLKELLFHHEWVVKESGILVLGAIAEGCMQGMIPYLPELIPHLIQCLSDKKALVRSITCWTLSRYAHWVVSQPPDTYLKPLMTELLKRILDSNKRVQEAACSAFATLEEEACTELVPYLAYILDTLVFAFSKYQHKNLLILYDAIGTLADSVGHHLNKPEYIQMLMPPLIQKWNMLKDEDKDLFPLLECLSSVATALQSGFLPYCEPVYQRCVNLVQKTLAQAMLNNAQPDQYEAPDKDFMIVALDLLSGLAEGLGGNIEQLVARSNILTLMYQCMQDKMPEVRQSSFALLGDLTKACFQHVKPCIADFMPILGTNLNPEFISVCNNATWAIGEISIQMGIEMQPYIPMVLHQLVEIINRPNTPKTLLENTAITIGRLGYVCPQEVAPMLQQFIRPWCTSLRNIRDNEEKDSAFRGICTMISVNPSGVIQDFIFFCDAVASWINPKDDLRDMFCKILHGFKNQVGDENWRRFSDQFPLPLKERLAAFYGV
As to the kind of experiment: ITC.

Assay [3] addresses T2, Karyopherin-β2 (full length, GST tag …). As to the kind of experiment: SEC.

The values below come from publication doi:10.1101/2023.01.20.524964 (bioRxiv, 2023).

For orientation: Kd means the concentration at which binding is half-saturated. Lower therefore signals higher affinity.

In turn, HNRNPM PY-NLS (domain or fragment) came in with a Kd in the assay with Kapβ2(W373A) of 9 nM.

“MBP-HNRNPH2 R212A (ITC) (from UniProt P55795 103-225) (domain or fragment)”: the Kd in assay [1] turned out to be 3200 nM.

B1: MBP-HNRNPH2(190-225) (domain or fragment, UniProt P55795 190-225, looked up)
chain: EVRTHYDPPRKLMAMQRPGPYDRPGAGRGYNSIGRG
As for B1, binding in assay [2] was characterised by a dissociation constant (Kd) of 40 nM.

B2: MBP-HNRNPH2(103-225) (domain or fragment, UniProt P55795 103-225, looked up)
chain: NSPDTANDGFVRLRGLPFGCSKEEIVQFFSGLEIVPNGMTLPVDFQGRSTGEAFVQFASQEIAEKALKKHKERIGHRYIEIFKSSRAEVRTHYDPPRKLMAMQRPGPYDRPGAGRGYNSIGRG
B2: the results for the Kd (in the assay with Kapβ2(W373A); in assay [2]) were 6100 nM and 50 nM, respectively.

B3: HNRNPH2(103-225) (as used for SEC and cryo-EM) (domain or fragment, UniProt P55795 103-225, looked up)
chain: NSPDTANDGFVRLRGLPFGCSKEEIVQFFSGLEIVPNGMTLPVDFQGRSTGEAFVQFASQEIAEKALKKHKERIGHRYIEIFKSSRAEVRTHYDPPRKLMAMQRPGPYDRPGAGRGYNSIGRG
modifications: mild crosslinking with 0.025% glutaraldehyde in the cryo-EM sample
Consider B3, for which the binding result in assay [3] is listed as “binds”.

B4: MBP-HNRNPH2(103-225) P209L (domain or fragment, UniProt P55795 103-225, looked up)
chain: NSPDTANDGFVRLRGLPFGCSKEEIVQFFSGLEIVPNGMTLPVDFQGRSTGEAFVQFASQEIAEKALKKHKERIGHRYIEIFKSSRAEVRTHYDPPRKLMAMQRPGLYDRPGAGRGYNSIGRG
On to B4, for which the “fold decrease of affinity against wild type” value in assay [2] is approximately 200 fold.
